Here are results for 1 molecule from paper PMC2064081 (The Journal of Cell Biology, 2007).

The target of the assay is F-actin (rabbit muscle actin, filaments) (rabbit, UniProt P68135 1-377). Briefly: co-sedimentation.

B1: IRSp53/IMD (IRSp53/MIM domain of human IRSp53) (domain or fragment)
chain: MSLSRSEEMHRLTENVYKTIMEQFNPSLRNFIAMGKNYEKALAGVTYAAKGYFDALVKMGELASESQGSKELGDVLFQMAEVHRQIQNQLEEMLKSFHNELLTQLEQKVELDSRYLSAALKKYQTEQRSKGDALDKCQAELKKLRKKSQGSKNPQKYSDKELQYIDAISNKQGELENYVSDGYKTALTEERRRFCFLVEKQCAVAKNSAAYHSKGKELLAQKLPLWQQACADPSKIPERAVQLMQQVASN
For the molecule B1, the binding result is “binds”.
